The nature of data set [1]: co-localisation with ARL15-mClover3, SK-RC-39 cells. The settings on record: glycan lost; control: wild-type CNNM3-mCherry.
The nature of data set [2]: fluorescence imaging, SK-RC-39 cells, ER/Golgi markers. The settings on record: glycan lost; control: wild-type CNNM3-mCherry.

B1: CNNM3: N73A (protein)
parent chain: MAAAVAAAGRLGWLFAALCLGNAAGEAAPGPRVLGFCLEEDGAAGAGWVRGGAARDTPDATFLLRLFGPGFANSSWSWVAPEGAGCREEAASPAGEWRALLRLRLRAEAVRPHSALLAVRVEPGGGAAEEAAPPWALGLGAAGLLALAALARGLQLSALALAPAEVQVLRESGSEAERAAARRLEPARRWAGCALGALLLLASLAQAALAVLLYRAAGQRAVPAVLGSAGLVFLVGEVVPAAVSGRWTLALAPRALGLSRLAVLLTLPVALPVGQLLELAARPGRLRERVLELARGGGDPYSDLSKGVLRCRTVEDVLTPLEDCFMLDASTVLDFGVLASIMQSGHTRIPVYEEERSNIVDMLYLKDLAFVDPEDCTPLSTITRFYNHPLHFVFNDTKLDAVLEEFKRGKSHLAIVQKVNNEGEGDPFYEVLGLVTLEDVIEEIIRSEILDESEDYRDTVVKRKPASLMAPLKRKEEFSLFKVSDDEYKVTISPQLLLATQRFLSREVDVFSPLRISEKVLLHLLKHPSVNQEVRFDESNRLATHHYLYQRSQPVDYFILILQGRVEVEIGKEGLKFENGAFTYYGVSALTVPSSVHQSPVSSLQPIRHDLQPDPGDGTHSSAYCPDYTVRALSDLQLIKVTRLQYLNALLATRAQNLPQSPENTDLQVIPGSQTRLLGEKTTTAAGSSHSRPGVPVEGSPGRNPGV
Take B1: the localisation_or_trafficking entry is recorded as “decreases” in data set [1] and “abolishes” in data set [2].

The record behind these values is article PMC8257531.
